Measurements from the supplement of paper PMC10567573.

B1: PTPN9 (parent)
chain: LKGAFPARLKKVLIVGAPIWFRVP
B2: NCK2 (parent)
chain: YTGPSSSGRFAGREWYYGNVTRHQ

Variants of: B1
Assay: protein stability index of a GFP-peptide fusion (GPS, HEK-293T) (PSI 1-6); higher = more stable
Details: c terminus: a fixed tail appended
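Further: lentivirally expressed fusions sorted by FACS into six bins by GFP to DsRed ratio, PSI derived from sequencing read proportions per bin multiplied by bin number.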

Protein stability index of substitutions, site by site:
L1: I 4.73; C 3.38

Variants of: B2
Assay: as above
Details: c terminus: a fixed tail appended

Protein stability index: each site, then its substitutions
H23: S 1.79; P 1.23; C 1.07; Q 1.31; E 1.47; M 1.56
S7: K 2.08; V 1.46; T 2.68; Q 2; N 1.47; C 3.63; E 2.32; D 1.59
W15: N 2.73; C 2.19; G 2.82; L 1.77; V 2.36; T 2.28; Q 2.36; R 2.35; M 2.18; H 2.66; S 1.5
G12: T 2.17; C 2.81; A 1.73; P 1.42; W 1.9; I 2.66; V 1.84
Q24: D 2.51; W 2.83; N 1.62; A 1.96; K 2.42; S 2.25; C 2.61
G18: R 2.44; I 1.74; N 2.49; S 2.99; V 2.68; Q 2.23
G8: E 2.32; D 2.65; C 2.32; Y 2.22; T 1.87
R9: P 2.14; T 1.44
S6: H 2.15; P 1.66; N 1.78; K 2.35; G 1.54; L 1.77; C 1.69
V20: S 1.66; M 1.85; N 1.98; Y 2.44; P 1.81; C 2.13; H 2.34; K 2.2; L 1.88
A11: V 1.62; E 2.04; P 1.25; M 1.48; L 2.02; Y 2.2
N19: A 2.09; Q 3.23; M 3.08; T 2.44; E 1.53; R 2.53
P4: K 2.4; S 1.79; H 2.48; G 1.99; R 3.61; E 2.31
G3: L 1.81; T 1.54; C 1.83; S 2.04; M 1.88; K 2.08; H 1.71
T2: P 3.3; K 2.27; A 2.62; V 2.32; M 2.62
Y1: S 2.12; V 2.93; F 1.47; R 2.55; I 2.08; A 3.25; H 2.48; P 3.8; D 3.3; K 2.75
R22: W 1.61; E 1.85; A 2; H 1.33; N 2.35; K 1.46; C 1.7; D 1.65
F10: L 1.44; Y 1.64; G 2.35; Q 1.84; E 2.95; M 2.1; K 2.25; H 2
R13: C 3.48; G 2.21; F 2.33
Y16: D 2.27; M 1.61; E 2.26; V 1.5; R 1.98; L 1.59; G 1.81; H 2.03; I 2.19; A 2.24; C 2.03
T21: C 2.37; L 2.34; I 1.87; D 1.76; E 2.05; S 2.13; A 1.84
S5: I 2.13; C 1.31; T 1.86; R 2.03; F 2.77
E14: K 2.03; S 1.67; F 1.95; Q 2.09; Y 1.3; C 3.32; N 1.78; G 1.69; M 1.64
Y17: L 1.58; N 1.59; R 2.19; K 1.91; S 2.44; A 2.11
